Self-cleavage data for 167 variants are collected here from the RNAGym collection of RNA variant scans (doi:10.1093/nar/gkz1192).

The labels stand for the following.
B1: CPEB3 Ribozyme (parent)
chain: UAACAGGGGGCCACAGCAGAAGCGUUCACGUCGCAGCCCCUGUCAGAUUCUGGUGAAUCUGCGAAUUCUGCUGUAUAUCUC

The data set covers variants of B1. In words: self-cleavage, relative activity (ratio to wild type); higher = more cleavage; in vitro, sequencing. In short, it runs like this:
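Libraries of CPEB3 self-cleaving ribozyme mutants came from rounds of error-prone PCR and carried barcodes, which DNA sequencing matched to variants. In vitro transcription used T7 RNA polymerase at 37°C for 5 hours, with a further 15 min in DNase I before EDTA stopped the reaction; the ribozymes cleaved during both steps. The RNA was reverse transcribed with template switching and sequenced on Illumina. Relative activity is the cleaved/total read fraction of a variant divided by that of the unmutated ribozyme, averaged over three batches with at least 5 reads.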
For A3U A5G, the self-cleavage was determined as 0.79. The result for G30A A57G reads 0.29; that for G24A A57G, 0.15. With U41A G63U the figure was 0.3; with C62A U72G, 0.19; with A3G U58C, 0.54. The result for A13G C17A reads 0.38; that for C50U U69C, 0.41; that for C32A U54C, 0.32. In the case of G6A C79A, the self-cleavage amounted to 0.38.

As to U31G U49A, the self-cleavage is 0.34. With U72G U78G the figure was 1; with G8U A75G, 0.12. The result for G10C C44U reads 0.18; that for A15G C29A, 0.16; that for A5G U26A, 0.56. With U43C U54A the figure was 0.69.

Turning to U31G C39U, the self-cleavage stood at 0.34.

Take A13U C62U: the self-cleavage came out at 0.22.

Consider G9A A28C, for which the self-cleavage came to 0.2. With G33A G63U the figure was 0.1; with A13U A28G, 0.72; with A21C U41C, 0.13. The result for A3G A21G reads 0.73; that for A3C U25G, 0.55; that for C14U U60A, 0.53.

Turning to U31G C68A, the self-cleavage was 0.31. The result for A35U U51G reads 0.47. The result for C68A A75U reads 0.28; that for A18U A56G, 0.3. With A18G U66A the figure was 0.31. In the case of A13G C38G, the self-cleavage is 0.28. Take C12G U67G: the self-cleavage stood at 0.12. Take C12G U67A: the self-cleavage stood at 0.23.

G19C A35U: the self-cleavage came out at 0.22. As for U31G A75U, the self-cleavage is 0.46. The result for A21G U25G reads 0.34; that for A5G U69A, 0.49; that for A45G A77C, 0.48. As to C17U A18G, the self-cleavage is 0.23. With A15G G70A the figure was 0.29; with A13G U48C, 0.44. A18G U48A: the self-cleavage is 0.16.

Consider U58A U67C, for which the self-cleavage stood at 0.31. With U25G C32A the figure was 0.26. The result for G33A C62A reads 0.37; that for U49C A75G, 0.4; that for C14G U54C, 1.03. The result for A3G C39U reads 0.64; that for G19A U54C, 0.23. Turning to G19U U69C, the self-cleavage turned out to be 0.09. G53U U72C: the self-cleavage worked out at 1.2.

For the variant U25C A47U, the self-cleavage was found to be 0.23.

Consider U51C U67C, for which the self-cleavage amounted to 0.4.

Turning to G6A U80A, the self-cleavage is 0.53. The result for U26C U43G reads 0.7; that for A3G A64U, 0.45. With A3U U25A the figure was 0.29; with G22A U67C, 0.09; with G10A U26G, 0.05.

Turning to G36A U51G, the self-cleavage was found to be 0.19. The result for A47U A57G reads 0.32; that for A45U A75U, 0.55; that for U1A U41A, 0.2. With A64G C68A the figure was 0.2; with U31C U54G, 0.68; with C39A A47C, 0.2. With A18C A56U the figure was 0.14; with U48G U49C, 0.46. With G22A U41C, the self-cleavage came to 0.37. For C29G U31C, the self-cleavage is 0.13.

A20C A21G: the self-cleavage came out at 0.49. The result for A56C U80C reads 0.93; that for A3G G6A, 0.59. The result for C11U A57G reads 0.33. The result for G8A U67A reads 0.26; that for A15G U48A, 0.35; that for C12A A64U, 0.56. As for A28U C39G, the self-cleavage was found to be 0.27. With U1A U54C the figure was 1.08; with U26A A77U, 1.03; with U69G C79U, 0.72. With C29A C40A the figure was 0.17. In the case of C40U U49A, the self-cleavage was 0.2.

Regarding A13U U76C, the self-cleavage was 1.17. The result for U1A G36C reads 0.09. Turning to U26C U66A, the self-cleavage amounted to 0.23. The result for G30A G63U reads 0.13; that for G61A C62U, 0.17. As for A20U U26A, the self-cleavage stood at 0.34. With C32U A45U the figure was 0.3; with A28C U67A, 0.49; with A15G C62U, 0.26.

As for C27U A47G, the self-cleavage was 0.28.

C79G: the self-cleavage turned out to be 1.13. With A45U U78A the figure was 0.62. In the case of U31C C44U, the self-cleavage was found to be 0.26. With A65G U74G the figure was 0.89; with C29G A47G, 0.21; with A2G A57U, 0.28. With U26G U48C the figure was 0.22; with G8A C44A, 0.26. Turning to G7U U78C, the self-cleavage worked out at 0.13.

Take C23U U72C: the self-cleavage was 0.48. With C12A A56G, the self-cleavage is 0.87. Regarding C44U U60C, the self-cleavage was found to be 0.52. With G9U A35U the figure was 0.14. Regarding A5G A45C, the self-cleavage is 0.42. On to A13G A47U, for which the self-cleavage was found to be 0.38. With A15C G24A the figure was 0.18; with A21G C40U, 0.46. The result for G19U U76A reads 0.18; that for U43C G63C, 0.3; that for A3U G6U, 0.59.

As to A18G A56C, the self-cleavage was found to be 0.25.

Take A13G G16A: the self-cleavage worked out at 0.24. As for G8A C12G, the self-cleavage came to 0.09. Take C32U G70A: the self-cleavage came out at 0.21.

Turning to C38U U60G, the self-cleavage turned out to be 0.25. Consider U67C C68A, for which the self-cleavage amounted to 0.38.

Take U26A C37U: the self-cleavage amounted to 0.5. With U60C U80C the figure was 0.57; with A13G U76A, 0.99; with G16A U49A, 0.4. For the variant C4U U41A, the self-cleavage amounted to 0.48. As to U48C U51A, the self-cleavage was determined as 0.42. Regarding C23A G63A, the self-cleavage is 0.09.

As for C34U U72G, the self-cleavage was 0.33. With A20U A21U the figure was 0.29. The result for G16C reads 0.35; that for A28G U54G, 0.41.

Consider U51A A77U, for which the self-cleavage was found to be 1.03. With A28G U72C the figure was 0.67; with A3C G24A, 0.29. In the case of C38A U74G, the self-cleavage was determined as 0.27. Regarding C4G U66A, the self-cleavage was found to be 0.79. Turning to U54C U66G, the self-cleavage is 0.39.

As to A15U A20U, the self-cleavage was determined as 0.27. The result for U58C U78A reads 0.47; that for G6A U74C, 0.54.

As for G46U A65G, the self-cleavage stood at 0.07.

For G19C U41G, the self-cleavage was 0.32.

Regarding A5G U74G, the self-cleavage amounted to 1.41. Consider U51A U80A, for which the self-cleavage came to 1.07. Take A2G A13U: the self-cleavage is 0.91. The result for U43C G70A reads 0.31; that for A35G U60G, 1.04. The result for C12G U41G reads 0.14; that for A3G C37U, 0.85. As to A13U G33C, the self-cleavage was found to be 0.2.

With G10U G33U, the self-cleavage amounted to 0.1. The result for G46U U51C reads 0.28; that for U26C G73A, 0.99. The result for G7U U74A reads 0.22; that for A35C C81U, 0.93; that for G24U U49A, 0.23. With A5C U31A the figure was 0.75; with G7U U72G, 0.07; with G9U A56C, 0.29. In the case of A15G G52C, the self-cleavage amounted to 0.88. With U54C A57U the figure was 0.56; with A28G G70A, 0.23; with A28G G61A, 0.38. The result for U25C A56U reads 0.24; that for U60G C71U, 0.2; that for C32U U69A, 0.23. U41A U60C: the self-cleavage turned out to be 0.26.
